In US20230002489A1 (SHANGHAI EPIMAB BIOTHERAPEUTICS, published 2023):
Positions count from the first letter of the chain named.

Legend:
BCMA on NCI-H929 cells [1] = target: T1, BCMA on NCI-H929 cells (human, UniProt Q02223 1-184); experiment: cell-based or functional assay
T1 sequence (looked up): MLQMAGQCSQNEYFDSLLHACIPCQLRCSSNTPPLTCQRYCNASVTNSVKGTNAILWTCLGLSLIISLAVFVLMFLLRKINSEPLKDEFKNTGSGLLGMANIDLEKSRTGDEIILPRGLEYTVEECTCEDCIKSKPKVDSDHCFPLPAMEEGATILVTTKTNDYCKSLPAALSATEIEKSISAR

[2] = target: T2, BCMA on HEK293F-BCMA-NF-kB-luc cells (clone 1H2) (UniProt Q02223 1-184, limits assumed); experiment: cell-based or functional assay
T2 sequence (looked up): T1 sequence (looked up)

[3] = target: T3, recombinant human BCMA extracellular domain/Fc dimer (human); experiment: SPR, Biacore T200, 25 C; antibody captured on anti-mouse IgG Fc, BCMA(ECD)/Fc injected
T3 construct: also called Human BCMA (ECD); human BCMA(ECD)/Fc
Protocol: (§1) Briefly, goat anti-mouse IgG Fc antibody was directly immobilized across a biosensor chip, and antibody samples were injected over reaction matrices at a flow rate of 5 μl/min. Mouse anti-BCMA IgG test antibody was injected over the immobilized surface and captured by the immobilized anti-Fc antibodies. Human and cynomolgus BCMA(ECD)/Fc target polypeptides were then injected over the captured mouse anti-BCMA IgG surface. The association and dissociation rate constants, kₒₙ (M⁻¹s⁻¹) and koff (s⁻¹), respectively, were determined with a continuous flow rate of 30 μl/min. Rate constants were derived by making kinetic binding measurements at five different concentrations of target BCMA(ECD) polypeptide. The equilibrium dissociation constant KD (M) of the reaction between antibodies and related target proteins was then calculated from the kinetic rate constants using the formula KD=koff/kₒₙ. Kinetic constants were determined by processing and fitting the data to a 1:1 binding model using Biacore analysis software.

[4] = target: T4, cynomolgus BCMA(ECD)/Fc target polypeptide (cynomolgus); experiment: as above
T4 construct: extracellular domain; also called Cyno BCMA (ECD); cynoBCMA/Fc
Protocol: as §1

BCMA on NCI-H929 cells [5] = target: T1, BCMA on NCI-H929 cells; experiment: flow cytometry on NCI-H929 cells, Mean fluorescence against antibody conc. (nM)
Protocol: Binding activity of the chimeric bispecific BCMA/CD3 FIT-Ig antibodies was tested via flow cytometry with a human CD3/TCR complex transfected CHO cell line (CHOK1/CD3/TCR cells) and BCMA-expressing NCI-H929 cells. Briefly, 5×10⁵ cells in FACS buffer were seeded into 96 well plates. Cells were centrifuged at 400×g for 5 minutes and supernatants were discarded. For each well, 100 μl serially diluted FIT-Ig or FIT-Fab antibodies were then added and mixed with the cells. Following incubation for 40 minutes at 4° C., plates were washed several times to remove excess antibodies. Secondary antibody (goat anti-huIgG kappa chain specific) was then added and incubated with cells at room temperature for 20 minutes. After another round of centrifugation and washing, cells were resuspended with FACS buffer for reading on a CytoFLEX Flow Cytometer. Results were analyzed and plotted with GraphPad Prism 5.0 software.

[6] = target: T5, recombinant huCD3εγ/Fc fusion protein (fusion protein heterodimer) (human); experiment: SPR, Biacore T200, 25 C; antigen/Fc amine-coupled to the chip, FIT-Ig injected
T5 construct: also called huCD3/Fc dimer; heterodimeric CD3εγ/Fc fusion protein

[7] = target: T6, cynoCD3εγ/Fc fusion protein (cynomolgus monkey, UniProt Q95LI5 22-117; Q95LI7 23-113); experiment: as above
T6 construct: also called cynomolgus monkey CD3ε/γ heterodimer-Fc fusion protein; not shown: linker and Fc not described for the cynomolgus construct
T6 sequence (looked up) 1: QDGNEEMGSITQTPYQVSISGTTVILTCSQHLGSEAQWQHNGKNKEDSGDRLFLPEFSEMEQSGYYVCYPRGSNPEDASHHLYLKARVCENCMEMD
T6 sequence (looked up) 2: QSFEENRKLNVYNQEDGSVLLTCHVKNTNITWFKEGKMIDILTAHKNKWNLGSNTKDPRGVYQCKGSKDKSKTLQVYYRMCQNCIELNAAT

[8] = target: T4, cynomolgus BCMA(ECD)/Fc target …; experiment: as above
[9] = target: T3, recombinant human BCMA extracellular …; experiment: as above
[10] = target: T7, human CD3 on the surface of Jurkat cells (human, UniProt P07766 23-207; P09693 23-182; P04234 22-171); experiment: flow cytometry on Jurkat cells, Median-APC against antibody conc. (nM)
T7 construct: whole, on cells; Endogenous CD3 complex of the Jurkat T cell line; also called cell surface CD3 target on Jurkat cells; CD3-expressing Jurkat cells

BCMA on NCI-H929 cells [11] = target: T1, BCMA on NCI-H929 cells; experiment: flow cytometry on NCI-H929 cells, MFI
[12] = target: T7, human CD3 on the surface of Jurkat cells; experiment: flow cytometry on Jurkat/NFAT/luc cells, MFI against antibody conc. (nM)

T5 sequence (chain, as listed by the source limits assumed, chain 1 of 2): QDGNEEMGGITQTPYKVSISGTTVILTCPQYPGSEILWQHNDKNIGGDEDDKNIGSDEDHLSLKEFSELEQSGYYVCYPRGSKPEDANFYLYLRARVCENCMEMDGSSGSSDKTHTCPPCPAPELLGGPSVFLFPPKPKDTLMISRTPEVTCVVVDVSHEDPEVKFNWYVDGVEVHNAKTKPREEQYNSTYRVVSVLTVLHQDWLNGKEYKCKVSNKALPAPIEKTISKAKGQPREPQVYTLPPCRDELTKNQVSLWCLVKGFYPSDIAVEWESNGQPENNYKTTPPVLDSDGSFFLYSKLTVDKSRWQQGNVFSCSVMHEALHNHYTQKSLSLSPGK
T5 sequence (chain, as listed by the source limits assumed, chain 2 of 2): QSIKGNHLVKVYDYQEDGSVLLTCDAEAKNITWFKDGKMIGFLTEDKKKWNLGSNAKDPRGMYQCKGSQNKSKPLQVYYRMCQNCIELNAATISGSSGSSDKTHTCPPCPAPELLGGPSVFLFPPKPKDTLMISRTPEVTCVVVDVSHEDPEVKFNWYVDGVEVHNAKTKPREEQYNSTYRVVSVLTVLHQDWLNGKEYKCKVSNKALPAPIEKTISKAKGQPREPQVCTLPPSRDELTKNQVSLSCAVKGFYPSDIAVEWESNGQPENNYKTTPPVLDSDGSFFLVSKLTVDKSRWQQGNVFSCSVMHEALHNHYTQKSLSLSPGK
T7 sequence (P07766 23-207, chain 1 of 3): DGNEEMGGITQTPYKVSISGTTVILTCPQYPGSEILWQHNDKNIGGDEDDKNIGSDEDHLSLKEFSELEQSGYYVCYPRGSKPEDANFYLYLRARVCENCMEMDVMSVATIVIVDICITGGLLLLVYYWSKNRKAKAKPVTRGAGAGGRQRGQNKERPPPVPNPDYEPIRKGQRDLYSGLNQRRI
T7 sequence (P09693 23-182, chain 2 of 3): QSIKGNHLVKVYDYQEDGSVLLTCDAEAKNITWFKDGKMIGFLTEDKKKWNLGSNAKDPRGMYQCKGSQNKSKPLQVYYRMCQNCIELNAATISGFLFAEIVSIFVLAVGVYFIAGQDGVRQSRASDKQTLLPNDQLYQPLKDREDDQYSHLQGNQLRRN
T7 sequence (P04234 22-171, chain 3 of 3): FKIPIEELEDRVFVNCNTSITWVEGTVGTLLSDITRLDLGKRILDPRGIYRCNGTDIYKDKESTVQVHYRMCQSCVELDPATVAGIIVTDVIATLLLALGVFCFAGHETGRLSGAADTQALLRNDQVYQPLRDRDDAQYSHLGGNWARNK

B1: mAbBCMA-002 (antibody, V domains shown)
VH: QIQLVQSGPELKKPGETVKISCKASGYSFTNYGLNWVKQAPGKGLKWMGWINTYSGHPTYVDDFKGRFAFSLETSASTAYLQINKLKNEDTSTYFCVREKDDGYRLGLDYWGQGTSVTVSS
VL: QIVLTQSPAIMSASPGEKVTMTCSASSSVSYMYWYQQRPGSSPRLWIYDTSNLVSGVPARFSGSRSGTSYSLTISGMEAEDAATYYCLQYSGYPYTFGGGTKLEIK
notes: Mouse anti-BCMA IgG from hybridoma
BCMA on NCI-H929 cells [1]
  EC50 of inhibition of BAFF-induced NF-kB phosphorylation in NCI-H929 cells (inhibition %), unit from the axis: 34.8 nM
[2]
  EC50 of inhibition of the BAFF-induced NF-kB luciferase signal in HEK293F-BCMA-NF-kB-luc cells (inhibition %; the curve reaches only about 30 % at 100 nM), unit from the axis: 20.1 nM
[3]
  Kd: 13.8 nM
  koff: 0.00292 s⁻¹
  kon: 212000 M⁻¹ s⁻¹
[4]
  Kd: 7.55 nM
  koff: 0.000304 s⁻¹
  kon: 40300 M⁻¹ s⁻¹

B2: FIT1006-6a-Fab (bispecific antibody, not shown: small tags and cut ends)
chain 1: not shown
chain 2: EVQLVQSGAEVKKPGASVKVSCKASGYTFTNYYVHWMRQAPGQGLEWIGWISPGSDNTKYNEKFKGRVTLTADTSISTAYMELSRLRSDDTAVYYCARDDYGNYYFDYWGQGTTVTVSSASTKGPSVFPLAPSSKSTSGGTAALGCLVKDYFPEPVTVSWNSGALTSGVHTFPAVLQSSGLYSLSSVVTVPSSSLGTQTYICNVNHKPSNTKVDKKVEPKSC
chain 3: DIQMTQSPASLSASVGETVTVTCGASENIYGALNWYQRKQGKSPQLLIYGATNLADGISSRFSGSGSGRQFSLKISSLLPDDVATYFCQSVLTTPWTFGGGTKLEIKRTVAAPSVFIFPPSDEQLKSGTASVVCLLNNFYPREAKVQWKVDNALQSGNSQESVTEQDSKDSTYSLSSTLTLSKADYEKHKVYACEVTHQGLSSPVTKSFNRGEC
notes: FIT-Fab made from FIT1006-6a by papain digestion (Fc removed)
BCMA on NCI-H929 cells [5]
  binding result: binds

B3: FIT1006-4a-Fab (bispecific antibody, not shown: small tags and cut ends)
chain 1: not shown
chain 2: B2 chain 2 with Y27F, T28S, I48M, L70M, A72R
chain 3: B2 chain 3
BCMA on NCI-H929 cells [5]
  binding result: binds

B4: FIT1006-8a-Fab (bispecific antibody, not shown: small tags and cut ends)
chain 1: not shown
chain 2: B2 chain 2 with M37V
chain 3: B2 chain 3
notes: FIT-Fab made from FIT1006-8a by papain digestion (Fc removed)
BCMA on NCI-H929 cells [5]
  binding result: binds

B5: FIT1006-31b (D-E) (bispecific antibody, human IgG1, kappa, L234A L235A)
chain 1: not shown
chain 2: EVQLVQSGAEVKKPGASVKVSCKASGYTFTNFWMHWVRQAPGQRLEWMGAFYPGNDDTYYNQKFKGRVTITADTSASTAYMELSSLRSEDMAVYYCARSGYYGSSDAMDYWGQGTTVTVSSASTKGPSVFPLAPSSKSTSGGTAALGCLVKDYFPEPVTVSWNSGALTSGVHTFPAVLQSSGLYSLSSVVTVPSSSLGTQTYICNVNHKPSNTKVDKKVEPKSC
chain 3: not shown
notes: Humanized BCMA/CD3 FIT-Ig, outer BCMA and inner CD3 Fab, no linkers
[6]
  Kd: 17.1 nM
  koff: 0.00574 s⁻¹
  kon: 337000 M⁻¹ s⁻¹
[7]
  Kd: 10.8 nM
  koff: 0.00632 s⁻¹
  kon: 583000 M⁻¹ s⁻¹
[8]
  Kd: 1.61 nM
  koff: 0.000167 s⁻¹
  kon: 104000 M⁻¹ s⁻¹

B6: FIT1006-29b(D-A) (bispecific antibody, human IgG1, kappa, L234A L235A)
chain 1: not shown
chain 2: B5 chain 2 with T30P, M48I, R67K, V68A, I70L
chain 3: not shown
notes: Humanized BCMA/CD3 FIT-Ig, outer BCMA and inner CD3 Fab
[6]
  Kd: 16.7 nM
  koff: 0.00585 s⁻¹
  kon: 349000 M⁻¹ s⁻¹
[7]
  Kd: 11.2 nM
  koff: 0.00607 s⁻¹
  kon: 541000 M⁻¹ s⁻¹
[9]
  Kd: < 0.057 nM
  koff: < 5e-06 s⁻¹
  kon: 87800 M⁻¹ s⁻¹
[8]
  Kd: 1.09 nM
  koff: 0.00021 s⁻¹
  kon: 192000 M⁻¹ s⁻¹

B7: FIT1006-31b(D-T) (bispecific antibody, human IgG1, kappa, L234A L235A)
chain 1: not shown
chain 2: B5 chain 2
chain 3: not shown
notes: as for B6
[10]
  EC50 (read off the curve): ~3 nM
[6]
  Kd: 15.6 nM
  koff: 0.00572 s⁻¹
  kon: 367000 M⁻¹ s⁻¹
[7]
  Kd: 11.4 nM
  koff: 0.00621 s⁻¹
  kon: 546000 M⁻¹ s⁻¹
[8]
  Kd: 1.02 nM
  koff: 0.000191 s⁻¹
  kon: 188000 M⁻¹ s⁻¹

B8: FIT1006-35b(D-T) (bispecific antibody, human IgG1, kappa, L234A L235A)
chain 1: not shown
chain 2: B5 chain 2
chain 3: not shown
notes: as for B6
[10]
  binding result: binds

B9: HuEM0006-01-24 (antibody, human IgG1, kappa, L234A L235A, V domains shown)
VH: EVQLVQSGAEVKKPGASVKVSCKASGFSFTNYYVHWMRQAPGQGLEWMGWISPGSDNTKYNEKFKGRVTMTRDTSISTAYMELSRLRSDDTAVYYCARDDYGNYYFDYWGQGTTVTVSS
VL: DIVMTQSPDSLAVSLGERATINCKSSQSLLNARTRKNYLAWYQQKPGQPPKLLIYWASTRESGVPDRFSGSGSGTDFTLTISSLQAEDVAVYYCKQSYILRTFGGGTKVEIKR
notes: Humanized variant of mAbCD3-001; also called HuEM1006-01-24; monospecific anti-CD3 IgG
BCMA on NCI-H929 cells [11]
  binding result: no binding (tested: 100 nM)
[12]
  EC50 (read off the curve): ~0.5 nM

B10: huEM0006-01-27 (antibody, human IgG1, kappa, L234A L235A, V domains shown)
VH: B9 VH with M48I, M70L, R72A
VL: B9 VL
BCMA on NCI-H929 cells [11]
  binding result: no binding (tested: 100 nM)
[12]
  binding result: binds

B11: FIT1006-31a(D-T) (bispecific antibody, human IgG1, kappa, L234A L235A)
chain 1: not shown
chain 2: B2 chain 2 with Y27F, T28S, I48M, L70M, A72R
chain 3: DIQMTQSPSSLSASVGDRVTITCGASENIYGALNWYQQKPGKAPKLLIYGATNLATGIPSRFSGSGSGRDFTLTISSLQPEDFATYYCQSVLTTPWTFGQGTKLEIKRTVAAPSVFIFPPSDEQLKSGTASVVCLLNNFYPREAKVQWKVDNALQSGNSQESVTEQDSKDSTYSLSSTLTLSKADYEKHKVYACEVTHQGLSSPVTKSFNRGEC
[12]
  EC50 (read off the curve): ~1 nM

B12: FIT1006-35a(D-T) (bispecific antibody, human IgG1, kappa, L234A L235A)
chain 1: not shown
chain 2: B2 chain 2 with Y27F, T28S
chain 3: B11 chain 3
[12]
  binding result: binds
